Test results: paper PMC11969024 (2025)

B1: peptide HD2 (from tick evasin EVA4) / CCL22 (biotinylated, synthetic) (parent complex)
chain 1: EEDDYTAYAPLTCYFT
chain 2: GPYGANMEDSVCCRDYVRYRLPLRVVKHFYWTSDSCPRPGVVLLTFRDKEICADPRVPWVKMILNKLSQ
B2: peptide HD2 (from tick evasin EVA4) / CCL11 (biotinylated, synthetic) (parent complex)
chain 1: EEDDYTAYAPLTCYFT
chain 2: not shown

Variants of: B1

Point of comparison: chain 1 EEDDYTIYAPLTCYFT, enrichment -3 log2 (difference from the parental peptide). Against it:
- chain 1 EEDDYTAYGPLTCYFT — lower, -7.69 log2 (difference from the parental peptide)
- chain 1 EEDDYTAYAPLTCYRT — higher, 0.817 log2 (difference from the parental peptide)
- chain 1 EEDDYTPYAPLTCYFT — higher, 1.84 log2 (difference from the parental peptide)
- chain 1 ETDDYTAYAPLTCYFT — lower, -3.84 log2 (difference from the parental peptide)
- chain 1 EEDDYTAYAELTCYFT — lower, -6.9 log2 (difference from the parental peptide)
- chain 1 EEDDYTAYSPLTCYFT — higher, -2.79 log2 (difference from the parental peptide)
- chain 1 EEDDYTAYAPLLCYFT — higher, 0.0229 log2 (difference from the parental peptide)
- chain 1 EEADYTAYAPLTCYFT — lower, -3.86 log2 (difference from the parental peptide)
- chain 1 EEDAYTAYAPLTCYFT — lower, -8.08 log2 (difference from the parental peptide)
- chain 1 EEDDYTAYAPLTFYFT — lower, -6.63 log2 (difference from the parental peptide)
- chain 1 EVDDYTAYAPLTCYFT — higher, -2.63 log2 (difference from the parental peptide)
- chain 1 EEDDYTAYAPLTCYFW — higher, -0.731 log2 (difference from the parental peptide)
- chain 1 EEDDYTAAAPLTCYFT — lower, -7.77 log2 (difference from the parental peptide)
- chain 1 EEDDYTAYAPLDCYFT — lower, -6.65 log2 (difference from the parental peptide)
- chain 1 EEDDYTAYAPLTCYFL — higher, 0.694 log2 (difference from the parental peptide)
- chain 1 EEDDYTAYAPLTCYFI — higher, 0.113 log2 (difference from the parental peptide)
- chain 1 ESDDYTAYAPLTCYFT — lower, -3.12 log2 (difference from the parental peptide)
- chain 1 EEDDYTAYAPLCCYFT — higher, -1.01 log2 (difference from the parental peptide)
- chain 1 EEDDYTEYAPLTCYFT — higher, 1.56 log2 (difference from the parental peptide)
- chain 1 EEDDYTAYNPLTCYFT — lower, -4.75 log2 (difference from the parental peptide)
- chain 1 EEDDYTTYAPLTCYFT — higher, -1.44 log2 (difference from the parental peptide)
- chain 1 EEDDYTAYAPLTCDFT — lower, -4.53 log2 (difference from the parental peptide)
- chain 1 EEDDDTAYAPLTCYFT — lower, -5.05 log2 (difference from the parental peptide)
- chain 1 EEDNYTAYAPLTCYFT — lower, -4.06 log2 (difference from the parental peptide)
- chain 1 EEDDYTAYAPLTSYFT — lower, -3.73 log2 (difference from the parental peptide)
- chain 1 EEDDYTADAPLTCYFT — lower, -7.54 log2 (difference from the parental peptide)
- chain 1 EEDFYTAYAPLTCYFT — lower, -7.18 log2 (difference from the parental peptide)
- chain 1 EEDDYTAYAPLTCYFK — higher, 2.2 log2 (difference from the parental peptide)
- chain 1 ELDDYTAYAPLTCYFT — higher, -2.82 log2 (difference from the parental peptide)
- chain 1 EEGDYTAYAPLTCYFT — lower, -4.28 log2 (difference from the parental peptide)
- chain 1 EEDDYTAYWPLTCYFT — lower, -3.76 log2 (difference from the parental peptide)
- chain 1 EEDDYTAYAPLGCYFT — lower, -10.3 log2 (difference from the parental peptide)
- chain 1 ENDDYTAYAPLTCYFT — lower, -3.61 log2 (difference from the parental peptide)
- chain 1 EEDDYTAYAPLTMYFT — lower, -3.12 log2 (difference from the parental peptide)
- chain 1 EEDDYTAYAPLTAYFT — lower, -6.82 log2 (difference from the parental peptide)
- chain 1 EEDDYTALAPLTCYFT — lower, -7.77 log2 (difference from the parental peptide)
- chain 1 EEHDYTAYAPLTCYFT — lower, -5.38 log2 (difference from the parental peptide)
- chain 1 EEDDYLAYAPLTCYFT — higher, -2.3 log2 (difference from the parental peptide)

Variants of: B2

Point of comparison: chain 1 Y5D, enrichment -3.62 log2 (difference from the parental peptide). Against it:
- chain 1 D4G — lower, -4.8 log2 (difference from the parental peptide)
- chain 1 F15N — higher, -1.58 log2 (difference from the parental peptide)
- chain 1 T16C — higher, -0.0325 log2 (difference from the parental peptide)
- chain 1 C13Q — lower, -8.37 log2 (difference from the parental peptide)
- chain 1 D4S — higher, -3.54 log2 (difference from the parental peptide)
- chain 1 Y14R — lower, -8.35 log2 (difference from the parental peptide)
- chain 1 Y14D — lower, -4.78 log2 (difference from the parental peptide)
- chain 1 A9R — higher, -1.6 log2 (difference from the parental peptide)
- chain 1 Y14F — higher, 0.149 log2 (difference from the parental peptide)
- chain 1 Y5F — higher, 0.0717 log2 (difference from the parental peptide)
- chain 1 T16L — higher, 0.412 log2 (difference from the parental peptide)
- chain 1 D4W — higher, -3.16 log2 (difference from the parental peptide)
- chain 1 T16K — higher, -0.03 log2 (difference from the parental peptide)
- chain 1 T6N — higher, 1.61 log2 (difference from the parental peptide)
- chain 1 Y5H — lower, -6.32 log2 (difference from the parental peptide)
- chain 1 Y5G — lower, -5.68 log2 (difference from the parental peptide)
- chain 1 A7M — higher, 1.99 log2 (difference from the parental peptide)
- chain 1 D4Y — higher, -1.9 log2 (difference from the parental peptide)
- chain 1 P10Y — lower, -5.97 log2 (difference from the parental peptide)
- chain 1 Y8A — lower, -4.4 log2 (difference from the parental peptide)
- chain 1 T16Q — higher, 1.62 log2 (difference from the parental peptide)
- chain 1 E2A — higher, -0.825 log2 (difference from the parental peptide)
- chain 1 Y14V — lower, -3.71 log2 (difference from the parental peptide)
- chain 1 A9E — higher, 0.893 log2 (difference from the parental peptide)
- chain 1 Y5N — lower, -5.96 log2 (difference from the parental peptide)
- chain 1 D4T — lower, -4.2 log2 (difference from the parental peptide)
- chain 1 E2V — higher, -1.61 log2 (difference from the parental peptide)
- chain 1 E2H — higher, -2.49 log2 (difference from the parental peptide)
- chain 1 E2T — higher, -2.27 log2 (difference from the parental peptide)
- chain 1 F15K — lower, -4.78 log2 (difference from the parental peptide)
- chain 1 E2D — higher, 1.39 log2 (difference from the parental peptide)
- chain 1 Y5M — higher, -1.54 log2 (difference from the parental peptide)
- chain 1 D4K — lower, -5.45 log2 (difference from the parental peptide)
- chain 1 L11N — lower, -4.38 log2 (difference from the parental peptide)
- chain 1 C13S — lower, -5.22 log2 (difference from the parental peptide)
- chain 1 D3I — lower, -3.65 log2 (difference from the parental peptide)
- chain 1 E1T — higher, -0.645 log2 (difference from the parental peptide)
- chain 1 A9V — lower, -5.98 log2 (difference from the parental peptide)
- chain 1 D3M — higher, -2.72 log2 (difference from the parental peptide)
- chain 1 C13M — lower, -6.39 log2 (difference from the parental peptide)
- chain 1 A7E — higher, 2.59 log2 (difference from the parental peptide)
- chain 1 L11S — higher, -0.475 log2 (difference from the parental peptide)
- chain 1 T16A — higher, 1.44 log2 (difference from the parental peptide)
- chain 1 T6I — lower, -5.35 log2 (difference from the parental peptide)
- chain 1 C13Y — lower, -6.32 log2 (difference from the parental peptide)
- chain 1 Y5A — lower, -6.65 log2 (difference from the parental peptide)
- chain 1 T12K — lower, -5.35 log2 (difference from the parental peptide)
- chain 1 Y8W — higher, -1.91 log2 (difference from the parental peptide)
- chain 1 A9Y — lower, -4.85 log2 (difference from the parental peptide)
- chain 1 A7F — higher, -1.71 log2 (difference from the parental peptide)
- chain 1 A9S — higher, -1.28 log2 (difference from the parental peptide)
- chain 1 E1G — higher, -0.291 log2 (difference from the parental peptide)
- chain 1 A7R — higher, 0.794 log2 (difference from the parental peptide)
- chain 1 T12P — higher, -3.61 log2 (difference from the parental peptide)
- chain 1 T6M — higher, -0.715 log2 (difference from the parental peptide)
- chain 1 E2W — higher, -2.09 log2 (difference from the parental peptide)
- chain 1 F15V — higher, 0.59 log2 (difference from the parental peptide)
- chain 1 Y14T — lower, -4.02 log2 (difference from the parental peptide)
- chain 1 A7P — higher, 0.578 log2 (difference from the parental peptide)
- chain 1 L11R — higher, -0.735 log2 (difference from the parental peptide)
- chain 1 E1S — higher, -0.538 log2 (difference from the parental peptide)
- chain 1 D4P — higher, -3.25 log2 (difference from the parental peptide)
- chain 1 D4I — lower, -4.32 log2 (difference from the parental peptide)
- chain 1 E2L — higher, -1.7 log2 (difference from the parental peptide)
- chain 1 T12F — higher, -3.13 log2 (difference from the parental peptide)
- chain 1 Y5S — lower, -5.35 log2 (difference from the parental peptide)
- chain 1 Y8N — lower, -5.38 log2 (difference from the parental peptide)
- chain 1 A7S — higher, 0.886 log2 (difference from the parental peptide)
- chain 1 A7N — higher, 1.29 log2 (difference from the parental peptide)
- chain 1 T16W — higher, -0.88 log2 (difference from the parental peptide)
- chain 1 E2R — lower, -4.24 log2 (difference from the parental peptide)
- chain 1 A9M — higher, -3.46 log2 (difference from the parental peptide)
- chain 1 D4F — lower, -4.42 log2 (difference from the parental peptide)
- chain 1 D4L — lower, -4.32 log2 (difference from the parental peptide)
- chain 1 Y8V — lower, -8.13 log2 (difference from the parental peptide)
- chain 1 E1F — higher, -2.2 log2 (difference from the parental peptide)
- chain 1 T6L — higher, -2.13 log2 (difference from the parental peptide)
- chain 1 F15H — higher, -0.581 log2 (difference from the parental peptide)
- chain 1 A7T — higher, -0.43 log2 (difference from the parental peptide)
- chain 1 C13H — lower, -9.22 log2 (difference from the parental peptide)
- chain 1 F15C — lower, -4.03 log2 (difference from the parental peptide)
- chain 1 D3W — higher, -3.25 log2 (difference from the parental peptide)
- chain 1 P10L — lower, -9.08 log2 (difference from the parental peptide)
- chain 1 T16F — higher, -0.46 log2 (difference from the parental peptide)
- chain 1 A7Y — higher, -0.616 log2 (difference from the parental peptide)
- chain 1 C13A — lower, -8.03 log2 (difference from the parental peptide)
- chain 1 T12A — higher, -2.95 log2 (difference from the parental peptide)
- chain 1 T16H — higher, 0.297 log2 (difference from the parental peptide)
- chain 1 T12Q — higher, -1.12 log2 (difference from the parental peptide)
- chain 1 D3C — lower, -10.5 log2 (difference from the parental peptide)
- chain 1 D3S — higher, -2.82 log2 (difference from the parental peptide)
- chain 1 A7V — higher, -0.751 log2 (difference from the parental peptide)
- chain 1 D3L — higher, -3.39 log2 (difference from the parental peptide)
- chain 1 E1V — higher, -1.08 log2 (difference from the parental peptide)
- chain 1 D4A — higher, -3.23 log2 (difference from the parental peptide)
- chain 1 E1R — higher, -2.69 log2 (difference from the parental peptide)
- chain 1 F15W — higher, -1.47 log2 (difference from the parental peptide)
